For orientation: Kd means the equilibrium constant for the complex coming apart.

Experiment [1] addresses Human Beta-Amyloid (1-40) (human). Kind of experiment: SPR (ProteOn), Amyposomes flowed over immobilised fibrils; concentration as exposed PA; Aβ1-40 fibrils.
Experiment [2] has as its target Recombinant TTR variant TTR_S52P. Kind of experiment: SPR (ProteOn), Amyposomes flowed over immobilised aggregates; concentration as exposed PA; TTR aggregates.
The target in experiment [3] is Human Beta-Amyloid (1-40) (human). In words: cell-based or functional assay.
Experiment [4] concerns the target Recombinant TTR variant TTR_S52P. Kind of experiment: cell-based or functional assay.
Experiment [5] has as its target Truncated amyloidogenic form of Serum Amyloid A, SAA(1-76) (Homo sapiens (Human)) (UniProt P0DJI8). In words: cell-based or functional assay.
Experiment [6] addresses Recombinant β2-microglobulin variant β2m_D76N (Pongo pygmaeus (Bornean orangutan)) (UniProt P16213). In words: cell-based or functional assay.
The target in experiment [7] is Recombinant β2-microglobulin variant β2m_ΔN6 (Pongo pygmaeus (Bornean orangutan)) (UniProt P16213). Kind of experiment: cell-based or functional assay.

Sequence of Human Beta-Amyloid (1-40) (human) (peptide, as listed by the source): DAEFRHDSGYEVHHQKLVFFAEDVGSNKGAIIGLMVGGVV
Sequence of UniProt P0DJI8 (P0DJI8 other isoform, or with tags, fused parts or gaps limits assumed): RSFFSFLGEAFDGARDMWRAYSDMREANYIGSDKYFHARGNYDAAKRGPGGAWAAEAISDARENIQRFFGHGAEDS

In turn, “Amyposomes (liposomes composed of sphingomyelin/cholesterol, functionalized with phosphatidic acid and with mApoE peptide covalently linked to the outer surface)” registered a Kd in experiment [1] of 0.12 µM. Further, in experiment [2], the Kd amounted to 14.2 µM. In experiment [3], this substance yielded a ThT fluorescence, residual aggregates after 24 h, peptide:Amyposomes 1:50 of 40% and a ThT fluorescence, residual aggregates after 5 days, peptide:Amyposomes 1:50 of 10%. For the same substance, in experiment [4], the ThT fluorescence, aggregation with respect to protein alone, TTR:Amyposomes 1:50 was 40% and the ThT fluorescence, residual aggregates after 5 h, TTR:Amyposomes 1:50 amounted to 5%. Moreover, the ThT fluorescence, residual aggregates after 72 h, protein:Amyposomes 1:50 in experiment [5] was 30%. Also, in experiment [6], the ThT fluorescence, final aggregation extent with respect to protein alone, D76N:Amyposomes 1:50 turned out to be 36%; the ThT fluorescence, residual aggregates after 3 days, protein:Amyposomes 1:30 and 1:50 was 15%. In experiment [7], the ThT fluorescence, aggregation extent with respect to protein alone, protein:Amyposomes 1:50 amounted to 20% and the ThT fluorescence, residual aggregates, protein:Amyposomes 1:50 was determined as 50%.

These data come from patent publication US20220313607A1.
